According to the nanobody polyreactivity screen of Harvey et al. (2022):

Experiment: yeast display, Sf9 membrane polyspecificity reagent, FACS + sequencing; frameworks hold sequencing errors
In short: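 Synthetic nanobody libraries on Saccharomyces cerevisiae BJ5465 were galactose-induced for 36–48 hours, stained 1 hour at 4 °C with 10% biotinylated, detergent-solubilized Sf9 membrane reagent and enriched on streptavidin microbeads. FACS then separated cells into low and high (top ~1%) gates by anti-HA (expression) and streptavidin (reagent binding) fluorescence. Genes were colony-PCR amplified, MiSeq 2 × 250 sequenced and CDR-length filtered. A clone's polyreactivity label is that of its gate of origin.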

Sequence	polyreactivity (PSR sort gate)
QVQLVESGGGLVQAGGSLRLSCAASGSTFLTYAMGWYRQAAGKERELVAGISYSTGSTYYADSVKGRFTISRDNAKNTVYLQMNSLKPEDTAVYYCAADEWDGLWYYYYFNYEDWGQGTQVTVSS	low polyreactivity
QVQLVESGGGLVQAGGSLRLSCAASGSTFLTYAMGWYRQAPGKEREFVAAISSTGTGRTYYADSVKGRFTISRDNAKNTVYLQMNSLKPEDTAVYYCAADLYGTYDYWGQGTQVTVSS	low polyreactivity
QVQLVESGGGLVQAGGSLRLSCAASGSTFLTYAMGWYRQAPGKERELLAASTRSTSTYADSVKGRFTISRDNAKNTVYFQMNSLKPEDTAVYYCNVDSYFRWWYDEWGQGTQVTVSS	high polyreactivity
QVQLVESGGGLVQAGGSLRLSCAASGSTFLWNAMGWYRQAPGKERELVAAISYSGGSTYYADSVKGRFTISRDNAKNTVYLQMNSLKPEDTAVYYCAKEWFYDPYPPGYDYWGQGTQVTVSS	low polyreactivity
QVQLVESGGGLVQAGGSLRLSCAASGSTFLYNAMGWYRQAPWKERELVAAISWSGGSTYYADSVKGRFTISRDNAKNTVYLQMNSLKPEDTAVYYCAAEQRRFTGYDYWGQGTQVTVSS	high polyreactivity
QVQLVESGGGLVQAGGSLRLSCAASGSTFLYNTMGWYRPAPGKERELVAAITSAGSTNYADSVKGRFTISRDNAKNTVYLQMNSLKPEDTAVYYCAAVGPTSGARYTYDYWGQGTQVTVSS	low polyreactivity
QVQLVESGGGLVQAGGSLRLSCAASGSTFLYNTMGWYRQAPGKERELVATITSRGDRTYYADSVKGRFTISRDNAKNTVYLQMNSLNPEDTGVYYCARDYGPYLSPENPAPMDYWGQGTQVTVSS	low polyreactivity
QVQLVESGGGLVQAGGSLRLSCAASGSTFLYYAMGWYREAPGKERELVAVISWSGVSTYYADSVKGRFTISRDNAKNTVYLQMKSLKPEDTAVYYCNTGNHYIRTYGYWGQGTQVTVSS	low polyreactivity
QVQLVESGGGLVQAGGSLRLSCAASGSTFLYYAMGWYRQAPGKEREFVAAISISGGSTYYADSVKGRFTISRDNAKNTVYLQMNSLKPEDTAVYYCAARKKEYKPGNYWGQGTQVTVSS	low polyreactivity
QVQLVESGGGLVQAGGSLRLSCAASGSTFLYYAMGWYRQAPGKEREFVAAISKGSGRTYYADSVKGRFTISRDNAKNTVYLQLNSLKPEDTAVYYCAAAKWRGYPYQSDYWGQGTQVTVSS	high polyreactivity
QVQLVESGGGLVQAGGSLRLSCAASGSTFLYYAMGWYRQAPGKERQLVAAISGSGGSTYYADSVKGRFTISRDNAKNNVYLQMYSLKPEDTAVYYCNAVARRHGLGPYDYWGQGTQVTVSS	high polyreactivity
QVQLVESGGGLVQAGGSLRLSCAASGSTFLYYAMGWYRQEPGKERELVAAINWNGGSTYYADSVKGRFTISRDNAKNTVYLQMNSLKPEDTAVYYCNAYGISPYEYYYWGQGTQVTVSS	low polyreactivity
QVQLVESGGGLVQAGGSLRLSCAASGSTFLYYAMGWYTQAPGKERELVAAITVRGGNTYYADSVKGRFTISRDNAKNTVYLQMNSLKPEDTAVYYCAARAYYSFRYDYWGQGTQVTVSS	high polyreactivity
QVQLVESGGGLVQAGGSLRLSCAASGSTFLYYTMGWYRQAPGKERELVAAITGSGTSTYYADSVKGRFTISRDNAKNTVYLQMNSLKPEDTAVYYCAARGHGRLYYWGHGTQVTVSS	high polyreactivity
QVQLVESGGGLVQAGGSLRLSCAASGSTFLYYTMGWYRQAPGKERELVAAITNGGGSTYYADSVKGRFTISRDNAKNTVYLQMNSLKPEDTAVYYCNAPTVKYRLGYDYWGQGTQVTVSS	high polyreactivity
QVQLVESGGGLVQAGGSLRLSCAASGSTFLYYTMGWYRQAPGKERELVATISRDGSTKYADSVKGRFTISRDNAKITVYLQMNSLKPEDTAVYYCAAARDSIVYGQYDYWGQGTQVTVSS	low polyreactivity
QVQLVESGGGLVQAGGSLRLSCAASGSTFNANAMGWYRQAPGKERELVAAITAIGGSTYYADSVTGRFTISRDNAKNTVYLQMNSLKPEDTAVYYCAADFSYVYYLYDYWGQGTQVTVSS	low polyreactivity
QVQLVESGGGLVQAGGSLRLSCAASGSTFNDYAMGWYRQAPGKERELVASIRYSGGGTYYADSVKGRFTISRDNAKNTVYLQMNSLKPEDTAVYYCAKDTHLLNEHSGTSREYDYWGQGTQVTVSS	low polyreactivity
QVQLVESGGGLVQAGGSLRLSCAASGSTFNEYTMGWYRQAPGKERELVAAIRATDGSTYYADSVKGRFTISRDNAKNTVYLQMNSLKPEDTAVYYCAADYYWNDYWGQGTQVTVSS	low polyreactivity
QVQLVESGGGLVQAGGSLRLSCAASGSTFNGYAMGWYRQAPGKERELVAAITSSGSRTYYADSVKGRFTISRDNAKNTVYLQMNSLKPVDTAVYYCNAGKLARTYFRSSSLSPGDYWGQGTQVTVSS	high polyreactivity
QVQLVESGGGLVQAGGSLRLSCAASGSTFNGYTMGWYRQAPGKEREFVATITFSDGSTYYADSVKGRFTISRDNAKNTVYLQMNSLKPEDTAVYYCNVDSPIGYDYWGQGTQVTVSS	low polyreactivity
QVQLVESGGGLVQAGGSLRLSCAASGSTFNINAMGWYRQAPGKERELVADITSGGSTNYADSVKGRFTISRDNAKNTVYLQMNSLKPEDTAVYYCNADVLYGDSYRGGYCGQGTQVTVSS	low polyreactivity

Sequence	polyreactivity (PSR sort gate)
QVQLVESGGGLVQAGGSLRLSCAASGSTFNKYAMGWYRQAPGKEREFVAAITSSGGRTYYADSVKGRFTISRDNAKNTVYLQMNSLKPEDTAVYYCAARSYTYTAPIYGYWGQGTQVTVSS	high polyreactivity
QVQLVESGGGLVQAGGSLRLSCAASGSTFNKYTMGWYRQAPGKERELVAAITSGDSTYYADSVKGRFTISRDNAKNTVYLQMNSLKPEDTAVYYCAKSLRAYRHVIYGKPFYSWGQGTQVTVSS	low polyreactivity
QVQLVESGGGLVQAGGSLRLSCAASGSTFNLYAMGWYRQAPGKERELVASISRSGVSTYYADSVKGRFTISRDNAKNTVYLQMNSLKPEDTAVYYCAVDKVLYRLYPGMDYWGQGTQVTVSS	low polyreactivity
QVQLVESGGGLVQAGGSLRLSCAASGSTFNPYAMGWYRQAPGKERELVAAITWSSDDTYYADSVKGRFTISRDNAKNTVYLQMNSLKPEDTAVYYCAATTVTQWYTITVAYGYWGQGTQVTVSS	low polyreactivity
QVQLVESGGGLVQAGGSLRLSCAASGSTFNRYAMGWYRQAPGKERELVAAISWSGTRTYYADSVKGRFTISRDNAKNTVYLQMNSLKPEDTAVYYCAARRLYAGHQYDYWGQGTQVTVSS	high polyreactivity
QVQLVESGGGLVQAGGSLRLSCAASGSTFNSNAMGWYRQAPGKERELVAAINYSGGSTYYADSVKGRFTISRDNAKNTVYLQMNSLKPEDTAVYYCNKVYFDHYLSRVYYWGQVTQVTVSS	high polyreactivity
QVQLVESGGGLVQAGGSLRLSCAASGSTFNSYAMGWYRQAPGKESELVAAITSSGSRTRYADSVKGRFTISRDNAKNTVYLQMNSLKPEDTAVYYCAAVYRLKSGGVWRDSQFGYWGQGTQVTVSS	high polyreactivity
QVQLVESGGGLVQAGGSLRLSCAASGSTFNSYTMGWYRPAPGKERELVAAISWRGTSTYYADSVKGRFTISRDNAKNTVYLQMNSLKPEDTAVFYCAAAGRYRVLTGLVSSWKYWGQGTLVTVSS	high polyreactivity
QVQLVESGGGLVQAGGSLRLSCAASGSTFNTYAMGWYRQAPGKERELVAAITWRGGRTYYADSVKGRFTISRDNAKNTVYLQMNSLKPEDTAVYYCAARRTYYSRKPRFDYWGQGTQVTVSS	high polyreactivity
QVQLVESGGGLVQAGGSLRLSCAASGSTFNTYAMGWYRQAPGKERELVAAITWRGGRTYYADSVKGRFTISRDNAKNTVYLQMNSLKPEDTAVYYCNTLRPRLDGVYGYDYWGQGTQVTVSS	high polyreactivity
QVQLVESGGGLVQAGGSLRLSCAASGSTFNVNAMGWYRQAPGKERELVAAISSDGITNYADSVKRRFTISRDNAKNTVYLQMNSLKPEDTAVYYCNADWTDGDWADMDYWGQGTQVTVSS	low polyreactivity
QVQLVESGGGLVQAGGSLRLSCAASGSTFNWNAMGWYRQAPGKERELVAAITSSGARTRYADSVKGRFTISRDNAKNTVYLQMNSLKPEDTAVYYCAAYVYISPSGYYYWGQGTQVTVSS	high polyreactivity
QVQLVESGGGLVQAGGSLRLSCAASGSTFNYYAMGWDRQAPGTVRELVAAITRNGGRKYYADSVKGRFRLSRDNAKNTVYLQMNSLKPEETAVYYCATDTYSYRSIHDMGYWGQGTQVTVSS	high polyreactivity
QVQLVESGGGLVQAGGSLRLSCAASGSTFNYYAMGWYRQAPGKERELVAAITSSGTSTFYADSVKGRITISRDNAKNTVYLQMNSLKPEDTAVYYCAVDLYWSYFNGALGYRYYYWGQGTQVTVSS	high polyreactivity
QVQLVESGGGLVQAGGSLRLSCAASGSTFPANAMGWYRQAPGKERELVATISWSGGRTYYADSVKGRFTISRDNAKNTVYLQMNSLKPEDTAVYYCAKGYYWLSTYGDSRYGYWGQGTQVTVSS	high polyreactivity
QVQLVESGGGLVQAGGSLRLSCAASGSTFPAYAMGWYRQAPGKERELVAGISSGGRTYYADSVKGRFTISRDNAKNTVYLQMNSLKPEDTAVYYCAAFRFYWQRPDRYYYWGQGTQVTVSS	high polyreactivity
QVQLVESGGGLVQAGGSLRLSCAASGSTFPAYAMGWYRQAPGKERELVATITYTGGSTYYADSVKGRFTISRDNAKNTVYLQMNSLKPEDTAVYYCAADRWDQEDEFDYWGQGTQVTVSS	low polyreactivity
QVQLVESGGGLVQAGGSLRLSCAASGSTFPEYAMGWYRQAPGKERELVAAISKRGGRTYYADSVKGRFTISRDNAKNTVYLQMNSLKPEETAVYYCARDSYPHGRARFDYWGQGTQVTVSS	high polyreactivity
QVQLVESGGGLVQAGGSLRLSCAASGSTFPFYAMGWYRQAPGKERELVAAITSGGSTYADSVKGRFTISRDNAKNTVYLQMNSLNPEDTAVYYCAASWPRWWRFGYWGQGTQVTVSS	low polyreactivity
QVQLVESGGGLVQAGGSLRLSCAASGSTFPGNAMGWYRQAPGKERELVAAITSSGGSTDYADSVKGRFTISRDNAKNTVYLQMNSLKPEDTAVYYCNAKDAEHYERFNYWGQGTQVTVSS	low polyreactivity
QVQLVESGGGLVQAGGSLRLSCAASGSTFPGNAMGWYRQAPGKERELVASISGGGDSTYYADSVKGRFTISRDYAKNTVYLQMNSLKPEDTAVYYCAADYRQEPGYTGYYYWGQGTQVTVSS	low polyreactivity
